Among the data in paper PMC7881117 (Nature Communications, 2021) are Kd values, retold here.

This assay deals with T1, full-length p53 (UniProt P04637 1-393).
T1 construct: A fluorescein-labelled form was used in the ubiquitination assay only
As to the kind of experiment: SPR; p53 binding domain of MDM2 immobilised on a CM5 chip by amine coupling; full-length p53 at 0.125 to 2 μM flowed over; BIAcore 3000. The conditions noted are these: both partners purified.

T1 sequence (P04637 whole entry): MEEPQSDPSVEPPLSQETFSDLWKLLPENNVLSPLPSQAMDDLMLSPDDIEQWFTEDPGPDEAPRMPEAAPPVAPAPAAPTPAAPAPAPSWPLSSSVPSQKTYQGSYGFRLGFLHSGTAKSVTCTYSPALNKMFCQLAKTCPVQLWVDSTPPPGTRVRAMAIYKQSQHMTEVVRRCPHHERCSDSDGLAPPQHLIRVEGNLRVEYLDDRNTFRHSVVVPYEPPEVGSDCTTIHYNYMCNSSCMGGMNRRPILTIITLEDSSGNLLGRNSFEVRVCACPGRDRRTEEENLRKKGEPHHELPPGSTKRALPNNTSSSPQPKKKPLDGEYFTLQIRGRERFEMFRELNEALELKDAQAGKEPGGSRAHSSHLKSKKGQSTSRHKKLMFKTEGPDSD

B1: MDM2 p53 binding domain (domain or fragment)
chain: TLVRPKPLLLKLLKSVGAQKDTYTMKEVLFYLGQYIMTKRLYDEKQQHIVYCSNDLLGDLFGVPSFSVKEHRKIYTMIYRNLVV
B1: binding was characterised by a dissociation constant (Kd) of 600 ± 100 nM.
